# Measurements reported in US11826422B2, “Methods and compositions for adaptive immune modulation” (THE BOARD OF REGENTS OF THE UNIVERSITY OF TEXAS SYSTEM, priority 2016, dated 2023).
# B1: ovalbumin (protein, UniProt P01012 2-386, looked up)
# Ovalbumin: GSIGAASMEFCFDVFKELKVHHANENIFYCPIAIMSALAMVYLGAKDSTRTQINKVVRFDKLPGFGDSIEAQCGTSVNVHSSLRDILNQITKPNDVYSFSLASRLYAEERYPILPEYLQCVKELYRGGLEPINFQTAADQARELINSWVESQTNGIIRNVLQPSSVDSQTAMVLVNAIVFKGLWEKAFKDEDTQAMPFRVTEQESKPVQMMYQIGLFRVASMASEKMKILELPFASGTMSMLVLLPDEVSGLEQLESIINFEKLTEWTSSNVMEERKIKVYLPRMKMEEKYNLTSVLMAMGITDVFSSSANLSGISSAESLKISQAVHAAHAEINEAGREVVGSAEAGVDAASVSEEFRADHPFLFCIKHIATNAVLFFGRCVSP
# notes: model antigen/allergen, Grade V, Sigma
# Experiments:
# [1] = cited from earlier work
# OVA-specific IgE = experiment: Serum OVA-specific IgE by sandwich ELISA, OVA sensitization and aerosol challenge mouse model; assay type: in vivo; settings: mean±SEM
# Procedure: (§1) Female BALB/c mice (6-10 weeks of age) were purchased from Charles River, Wilmington, Mass., and housed five mice per cage in a 12/12 h light/dark cycle with food and water available ad libitum. All experimental procedures were approved by the institutional animal ethics committee (IAUCUC) at the Institute of Biosciences and Technology, Texas A&M HSC.
# (§2) Synthetic TLR ligands (referred to as O/P) were purchased from InvivoGen (San Diego, Calif.), reconstituted in endotoxin-free water, and suspended in 8 ml sterile PBS at the following concentrations: Pam2 10 μg/ml; ODN2395 20 μg/ml. Mice were sensitized to ovalbumin (OVA) ([…], Grade V, 2.25 mg alum in saline, pH7.4; Sigma, St. Louis, Mo.) administered by intraperitoneal (IP) injection once weekly for one or two weeks. Sensitized mice were exposed for 30 min to an aerosol of 2.5% (wt/vol) ovalbumin in 0.9% saline, via Aerotech II nebulizer (CIS US, Inc.) combined with or without O/P in the presence of room air supplemented with 5% CO2 to promote maximal ventilation and homogeneous aerosol exposure throughout the lungs.
# (§3) Serum immunoglobulin concentrations were determined by standard sandwich ELISA technique using 96 well Easywash high binding flat bottom plates (Corning). […] Reactions were stopped by addition of 2N H2SO4 and absorbance read at 450 nm. All readings used in the data fell within the linear portion of the standard curves. […]
# total IgE = experiment: Serum total IgE by sandwich ELISA, OVA sensitization and aerosol challenge mouse model; assay type: in vivo; parameters: unit not given here; settings: mean±SEM
# Procedure: as §1, §2
# Serum immunoglobulin concentrations were determined by standard sandwich ELISA technique using 96 well Easywash high binding flat bottom plates (Corning). All reagents were diluted in assay diluent (TBS+0.1% BSA [Calbiochem]) except for the coating reagent, which was diluted in TBS only. All wells were washed with wash buffer (TBS+0.1% Tween-20) 3×s, 5 minutes per wash, and all samples developed by adding TMB Substrate Reagent (BD Biosciences) for 30 minutes in the dark. Reactions were stopped by addition of 2N H2SO4 and absorbance read at 450 nm. All readings used in the data fell within the linear portion of the standard curves.
# The same protocol was followed for determining total IgE using the following amounts of reagents: 2 μg/mL goat anti-mouse IgE (AbD Serotec, STAR166), 2 μg/mL Biotin Rat Anti-Mouse IgE (BD Biosciences, clone R35-118). For OVA IgG1, the following amounts of reagents were used: 100 μg/mL OVA (Sigma) and 0.1 μg/mL Biotin Rat Anti-Mouse IgG1 (eBioscience, clone M1-14D12). For total IgG1: 2 μg/mL Rat Anti-Mouse IgG1 (BioLegend, clone RMG1-1), 0.05 μg/mL Biotin Rat Anti-Mouse IgG1 (eBioscience, clone M1-14D12). For IgG2a: 2 μg/mL Rat Anti-Mouse IgG2a (BioLegend, clone RMG2a-62) and 0.05 μg/mL Biotin Goat Anti-Mouse IgG2a (AbD Serotec, 108008). For total IgG: 2 μg/mL Goat Anti-Mouse IgG (AbD Serotec, 103001) and 0.025 μg/mL Biotin Sheep Anti-Mouse IgG (AbD Serotec, AAC10B).
# IgG2a = experiment: Serum IgG2a by sandwich ELISA, OVA model; assay type: in vivo, mouse; settings: FIG. 2; aerosol 6×, Group 6; mean±SEM
# Procedure: as §1, §2, §3
# eosinophils (EOS) in BAL = experiment: BAL total and differential cell counts (Wright-Giemsa), OVA model; assay type: in vivo, mouse; settings: FIG. 3B; sensitization optimization, Group 8: two IP OVA/alum, aerosol two times/week
# Procedure: as §2
# BAL was obtained by instilling and withdrawing two, 1 ml aliquots of PBS via trachea cannula (luer stub adapter, BD Biosciences). Total leukocyte count was determined with a hemocytometer (Houser Scientific, Horsham, Pa.), and slides for differential cell count were prepared by cytospin of 300 μl of BAL fluid at 500×g for 5 min, followed by Wright-Giemsa staining.
# IgG1 = experiment: Serum total IgG1 by sandwich ELISA, OVA model; assay type: in vivo, mouse; settings: FIG. 2; aerosol 6×, Groups 4 and 6; mean±SEM
# Procedure: as §1, §2, §3
Molecule,"solubility in dimethyl sulfoxide and dimethylformamide ([1]; dimethyl sulfoxide, dimethylformamide)","solubility in methanol and 95% ethanol ([1]; methanol, 95% ethanol)",solubility in water ([1]; water),"OVA-specific IgE (OVA-specific IgE; FIG. 1C, serum, day 21, aerosol 6×, Groups 4 and 6)","OVA-IgE (OVA-specific IgE; FIG. 6 second panel, aerosol schedule of FIG. 5A, Groups 2 and 3)","total IgE (total IgE; FIG. 1B, serum, day 21, aerosol 6× (three times/week for 2 weeks from second immunization), Groups 4 and 6)","total IgE (total IgE; FIG. 4, sensitization optimization, Group 5: one IP OVA/alum, OVA aerosol two times/week)","total IgE (total IgE; FIG. 4, sensitization optimization, Group 8: two IP OVA/alum, OVA aerosol two times/week)","total IgE (total IgE; FIG. 6 top panel, two OVA immunizations, aerosol schedule of FIG. 5A, Groups 2 and 3)",IgG2a levels (IgG2a),eosinophils (EOS) in BAL (eosinophils (EOS) in BAL),IgG1 levels (IgG1)
"CCC(=O)O[C@]1(C(=O)SCF)[C@H](C)C[C@H]2[C@@H]3C[C@H](F)C4=CC(=O)C=C[C@]4(C)[C@@]3(F)[C@@H](O)C[C@@]21C [Fluticasone propionate, S-(fluromethyl)6α,9-difluoro-11β-17-dihydroxy-16α-methyl-3-oxoandrosta-1,4-diene-17β-carbothioate,17-propionate]",freely soluble,slightly soluble,practically insoluble,,,,,,,,,
B1,,,,4.36±0.82,3.77±1.00,17.23±1.82,5.36±1.70,11.05±2.39,24.66±8.23,25±3,elevated compared to all other groups,6.01±0.66
